Laboratory results taken from the supplement of paper PMC12667976.

B1: library; numbered along this chain (parent)
chain: MATDAALRRLLRLHRTEIAVAVDSAFPLLHALADHDVVPEDKFQETLHLKEKEGCPQAFHALLSWLLTQDSTAILDFWRVLFKDYNLERYGRLQPILDSFPKDVDLSQPRKGRKPPAVPKALVPPPRLPTKRKASEEARAAAPAALTPRGTASPGSQLKAKPPKKPESSAEQQRLPLGNGIQTMSASVQRAVAMSSGDVPGARGAVEGILIQQVFESGGSKKCIQVGGEFYTPSKFEDSGSGKNKARSSSGPKPLVRAKGAQGAAPGGGEARLGQQGSVPAPLALPSDPQLHQKNEDECAVCRDGGELICCDGCPRAFHLACLSPPLREIPSGTWRCSSCLQATVQEVQPRAEEPRPQEPPVETPLPPGLRSAGEEVRGPPGEPLAGMDTTLVYKHLPAPPSAAPLPGLDSSALHPLLCVGPEGQQNLAPGARCGVCGDGTDVLRCTHCAAAFHWRCHFPAGTSRPGTGLRCRSCSGDVTPAPVEGVLAPSPARLAPGPAKDDTASHEPALHRDDLESLLSEHTFDGILQWAIQSMARPAAPFPS

Variants of: B1
Assay: AIRE transcriptional activation functional score (insulin promoter-GFP; nonsense median 0, synonymous median 1) (normalised score); higher = higher AIRE activity (more reporter activation)
Conditions: with insulin promoter-GFP reporter in HEK293
Outline: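 Functional scores come from comparing select with non-select enrichment of each variant and subtracting wild type. Codon-optimized AIRE NNN-codon libraries across three regions were integrated via Bxb1 recombinase into HEK293 landing-pad cells with an insulin core promoter-GFP reporter, and integrants sorted at day 7 were expanded 7 days before top 10% GFP and unselected populations were tile-sequenced. Variants needed 10 counts per million in non-select, and values were rescaled to nonsense median 0 and synonymous median 1 before averaging over biological replicates.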

AIRE transcriptional activation functional score: each site, then its substitutions
G527: W 0.875 | F -0.224 | M 0.725 | I 1.02 | S 0.639 | A 0.391 | L 0.0948 | C 0.656 | H 0.494 | R 0.305 | V 0.0961 | K 0.173 | N 0.999
A537: I 0.231 | R -0.0391 | C 0.622 | M 0.458 | H 0.783 | E 0.915 | Q 0.813 | K 0.346 | G 0.792 | T 1.41 | L 0.0269 | V 0.891 | P 0.545 | S 1.1
S521: W 0.299 | I 0.551 | K -0.211 | F 0.695 | G 0.548 | T 1.08 | V 0.258 | C 0.241 | N 0.923 | Q 0.377 | L 0.969 | R 0.245 | M 0.76 | A 0.824
P539: I 0.0871 | L -0.0017 | K 0.00204 | H 0.373 | C 0.233 | F 0.224 | G 1.47 | A 0.371 | D 0.00758
I533: W 0.193 | D 0.569 | S 0.404 | T 0.516 | N -0.116 | G 0.261 | H 0.217 | V 0.411 | E -0.386 | C 0.256 | M 1.13 | L 0.274 | Y 0.199 | Q 0.144 | R 0.266
S518: Q 1.77 | T 1.51 | L 1.04 | R 0.342 | N 0.216 | V 1.12 | Y 1.3 | P 0.384 | K 1.27 | W 0.848 | I 0.907
Q530: R -0.0677 | W -0.0706 | I 0.183 | M -0.198 | F -0.0468 | Y 0.438 | L -0.018 | K 0.392 | P 0.385 | V -0.295 | S 0.546 | T 1.05 | D 0.251 | N 1.52 | H 1.21 | E 0.29 | A 0.824 | C -0.0453
W531: F 0.12 | C 0.138 | Q 0.225 | K 0.178 | D 0.357 | L 0.702 | N -0.329 | S 0.218 | A -0.104 | G 0.0105 | I 0.285 | R -0.126 | P -0.179 | M 0.434 | E -0.39 | V -0.0485
Q534: D -0.117 | A 1.7 | L 0.314 | S 0.372 | T 1.76 | V 0.135 | K 0.887 | N 1.8 | I -0.04 | M 0.598 | Y 0.193 | H 0.807 | C 1.08 | R 0.171 | F 0.205 | P 0.0913 | G 1.08
L520: Q 0.36 | R 0.181 | S -0.11 | G 0.375 | E 0.103 | K 0.452 | F 0.794 | I 1.23 | H 0.344 | T 0.23 | C 0.467 | A 0.276 | D 0.849 | P -0.00959 | V 0.478
S535: W 0.301 | C 0.706 | Y -1.02 | I 0.212 | H 0.704 | R 0.12 | P 0.472 | N 0.164 | F 0.394 | K -0.212 | T 0.745 | V 0.00974 | M -0.462 | A 1.1 | G 1.74 | Q -0.0138 | L 0.146
M536: R -0.0464 | Y -0.0719 | L 1.04 | C 1.08 | W 0.508 | A 0.0376 | G 0.186 | S 0.272 | H 1 | V 0.514 | F 1.95 | E 0.588 | D 0.726 | T 1.15 | P 0.215 | K -0.0329 | I 1.19 | N 0.506
L529: E -0.369 | D -0.829 | C 0.595 | W 1.39 | T 0.261 | P -0.359 | Q -0.832 | Y 0.598 | H -0.499 | I 1.17 | R 0.121 | G -0.203 | V 0.905 | A -0.089 | F 0.323 | M -0.503 | N -0.625 | S -0.21
E522: R -0.0906 | V 0.236 | F 0.252 | D 0.925 | G 0.352 | W -1.23 | A -0.0825 | I 0.133 | Q 1.03 | C 0.0951 | L -0.299 | K 0.503 | S 0.0236 | T -0.656
A532: V 0.836 | I 0.447 | R 0.215 | T 1.21 | S 0.141 | N 0.0785 | G 0.0621 | K -0.0221 | F -0.19 | Q 0.186 | L 1.01 | D 0.194 | Y 0.432 | P 0.00951 | C -0.268
H523: R -0.128 | V 0.847 | Y 1.33 | T 1.37 | K 0.199 | I 0.286 | L 0.222 | S 1.25 | W -0.242 | D 0.678 | F 0.43 | G 1.65 | Q 0.954 | C -0.042 | N 1.28
I528: Q 0.209 | E 0.137 | K -0.0103 | A 0.0102 | Y 0.65 | P 0.0858 | G 0.149 | T 0.117 | M 0.456 | S -0.0342 | V 0.759 | D 0.302 | R 0.161 | F 0.795 | N 0.204 | L 0.543 | C 0.179 | W 1 | H -0.237
F525: I 0.367 | Q -0.479 | S -0.595 | T -0.259 | G 0.0436 | Y 0.369 | A 0.406 | P 0.141 | E -1.43 | C 0.0978 | H -0.0452 | V 0.609 | N -0.231 | R -0.845 | L 0.45 | D 0.0868
L519: A 0.739 | I 0.439 | G 0.259 | S 0.255 | P 0.517 | W 0.904 | C 0.313 | N -0.347 | F 0.808 | R 0.267 | M 0.992 | D 0.255 | H -0.138 | T 0.239 | Q 0.698 | V 0.315 | E 0.874 | Y 1.11
T524: Y 1.4 | H -0.0688 | K 0.256 | R 0.214 | I 0.0345 | F 0.0783 | M -0.346 | C 1.47 | G 0.619 | S 1.61 | W 0.629 | P 0.528 | L -0.065 | V 0.353 | Q 0.0994 | A 0.636
D526: K 0.177 | S -0.0693 | N 0.21 | R -0.505 | F 0.421 | Y 1.02 | C -0.576 | A 0.225 | W -0.427 | E 0.925 | G 0.346 | V -0.011 | I 0.298 | T -0.207 | L -0.764 | P -0.403
R538: A 0.19 | L 1.52 | K 1.18 | I 1.65 | S 0.733 | W 1.54 | M 1.05 | T 0.72 | G 0.544 | N -0.187
